Consider two molecules from patent US10487307B2, “Culture method for pluripotent stem cells” (FUJIFILM CORPORATION, priority 2013, dated 2019).

Series [1] in a line: Evaluation 2 about amount of residual polypeptide adsorbed (2-mercaptoethanol in PBS). The settings on record: PBS with 2-mercaptoethanol 8.96 μM to 89.6 mM, 37° C.; FIG. 7. The series is classed as physicochemical. On the procedure: A cell culture surface coated with RCP-11 was prepared in the same manner as in Example 3, and then PBS containing 2-mercaptoethanol was added thereto such that the final concentration of 2-mercaptoethanol became 89.6 mM (0.7% by mass), 8.96 mM (0.07% by mass), 895.94 μM (0.007% by mass), 89.59 μM (0.0007% by mass), or 8.96 μM (0.00007% by mass), followed by incubation at 37° C. for a predetermined time. Thereafter, in the same manner as in Example 3, the amount of RCP-11 adsorbed was determined, and the residual rate of the polypeptide adsorbed was obtained. In FIG. 7, the amount of residual RCP-11 adsorbed is expressed as a ratio calculated by regarding the amount of RCP-11 adsorbed immediately after the starting of incubation as being 100%. Furthermore, “2-ME” indicates 2-mercaptoethanol.

Series [2] is described as follows: Example 5: residual rate of RCP-11 adsorbed after 2-mercaptoethanol pretreatment. The series is classed as physicochemical. Conditions: 24 hours. On the procedure: In the same manner as in Evaluation 1 about amount of residual polypeptide adsorbed> of Example 3, RCP-11 was added to the respective wells, thereby obtaining a coated cell culture surface. Thereafter, a 2-mercaptoethanol/PBS solution of which the concentration was adjusted in advance as shown in Table 14 was added thereto, followed by incubation for 24 hours, thereby accelerating the desorption of RCP-11.
After the cells were cultured for 72 hours, the number of cells was quantified in the same manner as in <Cell growth property evaluation 1> of Example 3. In the table, each of the residual rate of RCP-11 adsorbed and the cell growth rate is expressed as a ratio calculated by regarding the residual rate of the polypeptide adsorbed and the cell growth rate in the case where the pretreatment with PBS is performed as being 100%.

For series [3], the system named is iPS cells. The experiment in a line: Cell growth property evaluation 2 (2-mercaptoethanol concentration in Essential 8). The settings on record: RCP-11 100 μg/ml, 72 hours. The series is classed as cell-based, human. On the procedure: A cell culture surface coated with RCP-11 was prepared in the same manner as in <Cell growth property evaluation 1> of Example 1. iPS cells collected in the same manner as in <Cell growth property evaluation 1> were suspended in the respective media composed as shown in Table 12 and seeded into wells at a cell density of 10,000 cells/well. After the cells were cultured for 72 hours, the number of cells were quantified in the same manner as in <Cell growth property evaluation 1>, and the cell growth properties were evaluated based on a cell growth rate which is a ratio calculated by regarding the number of cells cultured using RPC-11 as being 100%.

The subject of series [4] is iPS cells. The experiment in a line: Evaluation of maintenance of undifferentiated state (reference examples). The series is classed as cell-based, human. On the procedure:
iPS cells collected in the same manner as in <Cell adhesiveness evaluation 1> were suspended in TeSR2. The iPS cells were seeded into 6-well plate (Tissue culture-treated, Falcon), onto which each of the samples 1, 2, 5, 6, and 7 used in <Cell adhesiveness evaluation 1> was adsorbed in the same manner as in <Cell adhesiveness evaluation 1>, and cultured in a CO2 incubator at 37° C. Except for the day after the seeding, the medium was replaced every day. In the same method as described above, the cells were subcultured every six days.
After being cultured for 1 month under the conditions described above, the cells were immobilized using 4% paraformaldehyde and treated with 1% Triton-X/PBS so as to enhance the membrane permeability. After the cells were subjected to a blocking treatment using an Image IT Signal Enhancer (Invitrogen), an anti-human NANOG antibody (AF 1997, R&D Systems, Inc.), an Alexa Fluor 555 binding rabbit anti-goat IgG antibody (Invitrogen), and DAPI (4′,6-diamidino-2-phenylindole, Dojindo Molecular Technologies, Inc.) were added thereto for labeling, and the cells were imaged using a fluorescence microscope.
FIGS. 3A and 4A show the iPS cells cultured on RCP-1; FIGS. 3B and 4B show the iPS cells cultured on RCP-11; FIGS. 3C and 4C show the iPS cells cultured on natural human vitronectin; FIGS. 3D and 4D show the iPS cells cultured on rLaminin-5; and FIGS. 3E and 4E show the iPS cells cultured on rLaminin-511. The scale bar in the images indicates […]. In FIGS. 3A to 3E, the images on the left side are full images of the colony, and the images on the right side are magnified images. In FIGS. 4A to 4E, the images on the left side are images of the cells stained with DAPI, and the images on the right side are images of the cells stained with an anti-NANOG antibody. The scale bar in FIGS. 3A to 4E indicates 200 μm.

Series [5] can be described thus: Evaluation of adsorbability with respect to cell culture surface (OPA fluorescence). The series is classed as physicochemical. The settings on record: FIG. 1; 0 to 200 pmol/cm^2 added, 2 hours at 37° C., washed twice with PBS. On the procedure:
Each of the polypeptides of RCP-1 to RCP-11 and RCP-21 to RCP-26 obtained as above was diluted with a predetermined buffer such that they could be added to wells at a predetermined final concentration of 0 pmol/cm^2 to 200 pmol/cm^2. Thereafter, each of the polypeptides was added in an amount of 64 μL to a plasma-treated 96-well plate made of polystyrene (Tissue Culture-Treated, Falcon). Each of the polypeptides was allowed to adsorb onto the plate by being incubated for 2 hours at 37° C., and then the wells were washed twice with PBS, thereby obtaining surfaces coated with each of the polypeptides of RCP-1 to RCP-11 and RCP-21 to RCP-26.
Among the surfaces coated with each of the polypeptides obtained as above, the surfaces coated with RCP-1 and RCP-21 to RCP-26 were applied with 64 μL of a borate buffer and 64 μL of 1 N NaOH, followed by incubation for 24 hours at 80° C. and 100% humidity. After the resultant was air-cooled, 75 μL of a borate buffer was added to each well, and 50 μL of a reaction solution obtained by mixing OPA (o-phthalaldehyde: Wako Pure Chemical Industries, Ltd./methanol solution (160 mg/ml)) with N-acetyl-L-cysteine (NAC: Wako Pure Chemical Industries, Ltd.)/borate buffer solution (2 mg/ml) at a ratio of 1:100 (mass ratio) was further added thereto. After incubation for 30 minutes at 40° C., the fluorescence intensity thereof was measured by using an Envision Multilabel Counter (PerkinElmer Inc.) (excitation 355 nm/fluorescence 486 nm). A calibration curve was separately prepared from each of the polypeptide solutions so as to calculate the amount of the polypeptide adsorbed. In FIG. 1, a black rhombus indicates RCP-1, a black square indicates RCP-21, a black triangle indicates RCP-22, a black circle indicates RCP-23, a white rhombus indicates RCP-24, a white square indicates RCP-25, and a white triangle indicates RCP-26.

B1: RCP-11: recombinant polypeptide for culture, SEQ ID NO: 25; vitronectin positions 1-55, 269-277, 295-341, 342-373, C274S (protein)
chain: MDQESCKGRCTEGFNVDKKCQCDELCSYYQSCCTDYTAECKPQVTRGDVFTMPEDESQEESEGSEDIFELLFWGRTSAGTRQPQFISRDWHGVPGQVDAAMAGRIYISGMAPRPSLAKKQRFRHRNRKGYRSQRGHSRGRNQN
modifications: Vitronectin-derived Recombinant Protein (RCP-11)
notes: vitronectin positions 1-55, 269-277, 295-341, 342-373, C274S
As to B1, the “amount of residual RCP-11 versus 2-mercaptoethanol concentration” value in series [1] is recorded as “tends to decrease as the concentration of 2-mercaptoethanol increases”. The “Residual rate of RCP-11 adsorbed (%)” value in series [2] (pretreatment 2-Mercaptoethanol 8.96 μM (0.00007% by mass), PBS pretreatment = 100%) is given as 82.2%; in series [2] (pretreatment 2-Mercaptoethanol 895.94 μM (0.007% by mass), PBS pretreatment = 100%), 77.4%; in series [2] (pretreatment 2-Mercaptoethanol 89.6 mM (0.7% by mass), PBS pretreatment = 100%) it was 56.6%; in series [2] (pretreatment PBS, this = 100%) it was 100%. The Cell growth rate in the series on iPS cells [3] (Essential8, 2-mercaptoethanol 0, 10,000 cells/well, this = 100%) is recorded as 100%; with iPS cells [3] (Essential8, 2-mercaptoethanol 10 μM (0.0000078% by mass)), 104.1%; in the series on iPS cells [3] (Essential8, 2-mercaptoethanol 10 μM (0.000078% by mass)), 97.3%; with iPS cells [3] (Essential8, 2-mercaptoethanol 100 μM (0.00078% by mass)), 49.2%; in the series on iPS cells [3] (Essential8, 2-mercaptoethanol 1 mM (0.0078% by mass)), 38.7%; in the series on iPS cells [3] (Essential8, 2-mercaptoethanol 10 mM (0.078% by mass)), 40.2%.

B2: RCP-1: recombinant polypeptide for culture, SEQ ID NO: 15; human vitronectin positions 1-55 and 269-459 with N-terminal methionine (protein)
chain: MDQESCKGRCTEGFNVDKKCQCDELCSYYQSCCTDYTAECKPQVTRGDVFTMPEDEPSQEECEGSSLSAVFEHFAMMQRDSWEDIFELLFWGRTSAGTRQPQFISRDWHGVPGQVDAAMAGRIYISGMAPRPSLAKKQRFRHRNRKGYRSQRGHSRGRNQNSRRPSRATWLSLFSSEESNLGANNYDDYRMDWLVPATCEPIQSVFFFSGDKYYRVNLRTRRVDTVDPPYPRSIAQYWLGCPAPGHL
modifications: Vitronectin-derived Recombinant Protein (RCP-1)
For B2, the “form of iPS cell colony” value in the series with iPS cells [4] (TeSR2, subcultured every six days, FIGS. 3A to 3E) was “form specific to undifferentiated cells”. In addition, in the series on iPS cells [4] (cultured for 1 month in TeSR2, anti-NANOG staining, FIGS. 4A to 4E), the “NANOG expression” value is recorded as “strongly expressed NANOG in the entirety of the colony”. In addition, in series [5], the “adsorbability with respect to the plate” value was “excellent adsorbability”.
